Values joined by “and” are separate entries in the source; they are usually repeats but may differ in a detail not shown here. Equal values may be shown once.
Target: Cys101 (UniProt position 101, YVTSVCTGSLV)
Assay: crystallography
Settings: data collected at 100 K; crystals grown at 20°C; 200 mM MgCl2 in reservoir; 100 mM tris-HCl (pH 8.3), sodium citrate (pH 6.0), or sodium acetate (pH 4.2, 5.0, 5.4); 23% PEG 3350, 2 mM DTT; substrate-free wild-type enzyme in crystals, reduced Cys101 (DTT present)

Substance: Isocyanide hydratase (ICH, PfICH) (Pseudomonas fluorescens)
- pKa: 5.7 and 5 to 6

— publication PMC10971408
